Data from patent US20230203156A1, “ANTI-MDR1 ANTIBODIES AND USES THEREOF” (KENJOCKETY BIOTECHNOLOGY, INC., priority 2020, published 2023).
Entries after “also recorded” stand apart in the source; their conditions may differ.

Tests used:
[1] = tested on: A2780 ADR ovarian carcinoma; assay: A2780 ADR drug-resistant ovarian carcinoma model in nude mice; type: in vivo; details: for tumor volume, single agent: antibody as a single agent; for tumor volume, in combination with paclitaxel: antibody plus paclitaxel
Description: (§1) Anti-ABCB1 antibodies B1.129, B1.261, B1.223, B1.225, B1.188, B1.28, and B1.226 were tested for effect on growth of tumors in immunodeficient mice. The following cancer cell lines were used for generating tumor models.
A2780 ADR: The adriamycin-resistant cell line A2780ADR has been developed by exposure of the parent A2780 cell line (Sigma catalogue no. 93112519) to adriamycin. A2780ADR is cross-resistant to melphalan and vinblastine. To retain resistance adriamycin has to be added to the media. The cells grow as a monolayer and in suspension in spinner cultures and are tumorigenic in immune deficient mice. Together with the cisplatin-resistant variant A2780cis these lines only differ in their exposure to a single drug and should facilitate the search for molecular changes responsible for the expression of pleiotropic drug resistance in human ovarian cancer.
Nude mice were implanted with A2780 ADR cells to model ovarian carcinoma. Anti-B1 monoclonal antibodies are efficacious in A2780 ADR ovarian carcinoma model in nude mice.

human MDR1 [2] = molecular target: T1, human MDR1 (Homo sapiens, UniProt P08183); assay: Antibody binding/titration to 293T cells overexpressing human MDR1 (FACS); details: 293T cell line overexpressing human MDR1
T1 construct: expressed in transfected cells
Description: Antibody binding to cells was evaluated by flow cytometry. 293T cells stably transfected to express human ABCB1 (293T_KPB1_OX) were washed once in flow cytometry buffer (PBS + 2% FBS + 0.02% sodium azide), resuspended at 2 x 10 \^6 cells/mL in flow cytometry buffer, and dispensed into 96-well microtiter plates at 0.1 mL/well. In the figures, “B1” refers to ABCB1 (also known as MDR1 or Pgp). Recombinant antibodies were added to cells at 5 ug/mL for initial binding confirmation, or serially diluted from 100 ug/mL in flow cytometry buffer. After incubating cells on ice for 30 min, cells were washed twice with flow cytometry buffer. Bound antibody was detected with PE-labeled F(ab′)2 fragment goat anti-human IgG (Jackson ImmunoResearch) and evaluated on an Attune NxT flow cytometer.
Binding titration of recombinant antibodies to ABCB1 transfectants was performed by 3-fold serial dilution of antibodies from 666.7 nM. Diluted antibody in flow cytometry buffer was incubated with cells on ice for 30 min. After 2 washes with flow cytometry buffer, bound antibody was detected with PE-labeled F(ab′)2 fragment goat anti-human IgG (Jackson ImmunoResearch) diluted 1:200 in flow cytometry buffer and incubated with cells for 20 min on ice. After 2 washes with flow cytometry buffer fluorescence was measured on an Attune NxT flow cytometer. Data were analyzed with GraphPad Prism 8.0 software to determine EC50′s.
(§2) Anti-MDR1 mAb B1.129 and a humanized version thereof were assessed for binding to 293T cell line overexpressing human MDR1 or to 293T cells transfected with cynomolgus MDR1. […] B1.129.hz1 and B1.129.hz2 antibodies are the same as the humanized versions B1.129.huH1-huL1(KV3) and B1.129.huH1-huL1(KV1), respectively, listed in Table 2. FIG. 10C summarizes the binding data for the B1.129 antibody.

cynomolgus MDR1 = assay: Antibody binding to 293T cells transfected with cynomolgus MDR1
cynomolgus MDR1, sequence (as listed by the source): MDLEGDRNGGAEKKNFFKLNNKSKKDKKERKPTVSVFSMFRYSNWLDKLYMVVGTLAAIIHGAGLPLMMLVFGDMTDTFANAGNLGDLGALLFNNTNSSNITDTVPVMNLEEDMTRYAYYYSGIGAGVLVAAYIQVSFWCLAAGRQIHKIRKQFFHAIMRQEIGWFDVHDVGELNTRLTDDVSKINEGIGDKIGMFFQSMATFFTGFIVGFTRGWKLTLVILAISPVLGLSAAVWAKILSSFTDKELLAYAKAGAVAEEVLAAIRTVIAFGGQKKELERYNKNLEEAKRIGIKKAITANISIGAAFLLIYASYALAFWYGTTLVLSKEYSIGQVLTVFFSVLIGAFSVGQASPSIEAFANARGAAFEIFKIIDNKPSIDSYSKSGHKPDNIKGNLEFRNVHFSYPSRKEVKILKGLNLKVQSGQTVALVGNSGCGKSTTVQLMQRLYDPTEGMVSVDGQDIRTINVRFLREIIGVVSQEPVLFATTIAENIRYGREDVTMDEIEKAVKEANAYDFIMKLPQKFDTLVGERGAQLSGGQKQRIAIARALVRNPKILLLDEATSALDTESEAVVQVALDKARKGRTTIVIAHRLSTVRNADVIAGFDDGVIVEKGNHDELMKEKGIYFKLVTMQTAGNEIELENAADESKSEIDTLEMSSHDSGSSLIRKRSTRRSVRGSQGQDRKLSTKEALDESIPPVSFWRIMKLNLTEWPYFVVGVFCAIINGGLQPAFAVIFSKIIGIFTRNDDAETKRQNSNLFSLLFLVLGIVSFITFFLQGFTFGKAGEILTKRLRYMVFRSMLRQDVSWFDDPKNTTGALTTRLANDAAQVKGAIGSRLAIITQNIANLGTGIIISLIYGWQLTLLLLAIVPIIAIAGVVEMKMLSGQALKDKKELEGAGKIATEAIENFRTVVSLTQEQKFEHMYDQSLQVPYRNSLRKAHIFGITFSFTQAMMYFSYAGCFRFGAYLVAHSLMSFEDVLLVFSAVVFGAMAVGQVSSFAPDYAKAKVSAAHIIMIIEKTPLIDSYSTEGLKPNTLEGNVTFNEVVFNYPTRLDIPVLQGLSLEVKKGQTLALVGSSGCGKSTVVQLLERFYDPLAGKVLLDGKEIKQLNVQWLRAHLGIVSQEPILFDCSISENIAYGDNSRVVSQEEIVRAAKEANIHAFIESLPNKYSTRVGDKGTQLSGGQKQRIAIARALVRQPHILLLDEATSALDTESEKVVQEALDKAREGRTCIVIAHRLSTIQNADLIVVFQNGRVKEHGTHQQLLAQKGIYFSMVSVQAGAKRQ
Description: as §2
Anti-MDR1 mAb B1.28 and a humanized version thereof were assessed for binding to 293T cell line overexpressing human MDR1 or to 293T cells transfected with cynomolgus MDR1.

[3] = tested on: human MDR1 extracellular loops 1 and 4 (ECD1, ECD4); assay: Epitope mapping with mutant human MDR1 expressed on 293T cells (flow cytometry); type: binding; details: mutant versus WT human ABCB1; preliminary epitope mapping
Text: (§3) To determine binding of anti-MDR1 mAbs listed in Table 2 to the two major extracellular loops 1 and 4 of MDR1, various mutations were constructed to alter or substitute these two loops. To examine binding to cynomolgus extracellular loops, the extracellular loop 1 and/or loop 4 of cynomolgus MDR1 were grafted (with a C-terminal FLAG tag) to substitute for the human loops in the human MDR1 using standard techniques. To examine binding dependence on the normal human loops, MDR1 variants with deletion 79-102 and deletion 82-99 in loop 1 were also generated. Loop 1 is also referred to as ECD1. Loop 4 is also referred to as ECD4. These mutant MDR1 efflux pump variants were expressed on 293T cells using standard methods to generate cells that could be used to distinguish binding of various anti-MDR1 mAbs. The different cells were incubated with different anti-MDR1 mAbs for about 1 hour at 4° C. The cells were washed twice with FACS buffer (PBS containing 0.5% BSA). Alexa647 labeled goat anti-human antibody was added as a secondary antibody, and the samples were incubated on ice for another 1 hour. Samples were washed again and analyzed by flow cytometry.
(§4) FIG. 9 summarizes the findings from preliminary epitope mapping using mutant human MDR1. […] For example, anti-MDR1 mAb B1.129 requires ECD1 and ECD4 for binding to human MDR1. All of the anti-MDR1 antibodies contact ECD4. […] ECD1 refers to the first extracellular domain of human ABCB1, ECD4 refers to the fourth extracellular domain of human ABCB1 and “others” refers to the remainder of the extracellular domains 2-3 and 5-6 of human ABCB1. Only binding to ECD1 and ECD4 was tested.

[4] = molecular target: T2, human MDR1 extracellular loops 1 and 4 (ECD1, ECD4) (Homo sapiens, UniProt P08183); assay: as above; type: binding; details: extracellular loop 1 and extracellular loop 4
T2 construct: FLAG (C); expressed in transfected cells; host or cells: 293T
Text: as §3, §4

[5] = tested on: MES-SA DX5 uterine sarcoma; assay: MES-SA DX5 drug-resistant uterine sarcoma model in nude mice; type: in vivo; details: for tumor volume / tumor growth, single agent / tumor volume / tumor growth, in combination with paclitaxel: MES-SA DX5, nude mice; for tumor volume / tumor growth, single agent: antibody as a single agent; for tumor volume / tumor growth, in combination with paclitaxel: antibody plus paclitaxel
Description: as §1
MES-SA DX5: The multi drug-resistant cell line MES-SA/Dx5 (Sigma. 95051031) was derived from the human uterine sarcoma cell line MES-SA (Sigma Catalogue number. 95051030) which was originally obtained from a tumour from a person at the time of hysterectomy. […] Cross resistance to bleomycin, cisplatin, carmustine, 5-fluorouracil or methotrexate was not observed.
Nude mice were implanted with MES-SA DX5 cells to model uterine sarcoma. Anti-B1 monoclonal antibodies are efficacious in MES-SA DX5 uterine sarcoma model in nude mice.

human MDR1 [6] = molecular target: T1, human MDR1; assay: Efflux blockade of MDR1 fluorescent substrates (flow cytometry); type: cell-based
Description: HEK 293T cells expressing human MDR1 or MES-SA/DX5 cells expressing human MDR1 were washed several times and aliquoted into 96-well plates as 50 µl aliquots/well at a cell density of 1 x 10e6 cells per ml in phenol red-free DMEM. Cells were mixed with 300 nM to 1 nM antibodies and incubated for 1 h at 37° C. To determine efflux blockade cells were incubated in the presence of B1 fluorescent substrates as follows: 0.6 µM Rhodamine; 5 µM […] (DiOC2(3)) or 0.6 µM Calcein AM for 1.5 h at 37° C. The cells were then washed twice and finally resuspended in […] PBS. Rhodamine, DiOC2(3) or Calcein AM fluorescence were measured by flow cytometry.
Effect of anti-MDR1 antibodies on efflux of MDR1 substrates Calcein, DIOC2, and Rhodamine was assessed as described in efflux blockade experimental procedure.

Molecule | tumor volume, single agent [1] | tumor volume, in combination with paclitaxel [1] | binding to human MDR1 (hB1) (human MDR1 [2]) | binding to cynomolgus MDR1 (cB1) (cynomolgus MDR1) | ECD1 required for antibody binding to human ABCB1 [3] | ECD4 required for antibody binding to human ABCB1 [3] | epitope on human MDR1 [4] | tumor volume / tumor growth, single agent [5] | tumor volume / tumor growth, in combination with paclitaxel [5] | inhibition of efflux of DIOC2 (human MDR1 [6]; 293T.hB1 cell line) | inhibition of efflux of Rhodamine (human MDR1 [6]; 293T.hB1 cell line) | inhibition of efflux of DIOC2 (human MDR1 [6]; MES-SA/Dx5 cells) | inhibition of efflux of Rhodamine (human MDR1 [6]; MES-SA/Dx5 cells) | inhibition of efflux of Calcein (human MDR1 [6]; cell line not given) | sensitization of MES-SA DX5 uterine sarcoma to paclitaxel ([5]; MES-SA DX5 tumors in vivo)
B1.28: anti-MDR1 antibody, Mouse; VH SEQ ID NO:14, VL SEQ ID NO:18 (antibody, listed as Mus musculus, V domains shown) VH: EVKLVESGGGLVKPGGSLKLSCAASGFTFGLYTMSWVRQTPERRLEWVATISSGGSNTYYPDSVKGRFTISRDNAKNNLFLQMNSLRSEDTALYYCARYYRYDAWFAYWGQGTLVTVSS VL: DVLLTQTPLSLPVSLGDQASISCRSSQNIVHSTGNTYLDWYLQKPGQSPKLLIYKVSNRFSGVPDRFSGSGSGTDFTLKISRVEAEDLGVYFCFQGSHIPRTFGGGTKLEIK | decreased tumor volume | decreased tumor volume | binds to both hB1 and cB1 | binds to both hB1 and cB1 | – | – | – | – | – | – | – | – | – | – | –
B1.129: anti-MDR1 antibody, Mouse; VH SEQ ID NO:56, VL SEQ ID NO:60 (antibody, listed as Mus musculus, V domains shown) VH: EVQLQQSGPELVKPGASVKMSCKASGYTFSTYVIHWVKQKPGQGLEWIGYIYPYNDYTKYNEKFKDKATLTSDKSSSTAYMEIRSLTSEDSAVYYCSRAYYGNLVGYGVDYWGQGTSVTVSS VL: QIVLTQSPAILPASPGEKVTMTCRASSSVSFIYWYQQRPGSSPKPWIFATSNLASGVPARFSGSGSGTSYSLTISRVEAEDAATYYCHQWGSNLPTFGGGTKLEIK | decreased tumor volume | decreased tumor volume | binds | binds | requires | requires | bind to an epitope comprising extracellular loop 1 and extracellular loop 4 | decreased tumor volume; also recorded: more effective in inhibiting tumor growth than 15D3 antibody | decreased tumor volume; also recorded: more effective in inhibiting tumor growth than 15D3 antibody | inhibited efflux | inhibited efflux | inhibited efflux | inhibited efflux | inhibited efflux of Calcein to a greater extent than the anti-MDR1 antibody 15D3 | –
B1.129.huH1-huL1(KV3): humanized B1.129; VH SEQ ID NO:63, VL SEQ ID NO:64 (antibody, V domains shown, humanized sequence) VH: EVQLVQSGAEVKKPGASVKVSCKASGYTFSTYVIHWVRQAPGQGLEWIGYIYPYNDYTKYNEKFKDRATLTSDKSTSTAYMELRSLRSDDTAVYYCSRAYYGNLVGYGVDYWGQGTTVTVSS VL: EIVLTQSPATLSLSPGERATLSCRASSSVSFIYWYQQKPGQSPRPWIFATSNLASGVPARFSGSGSGTDYTLTISSLEPEDFAVYYCHQWGSNLPTFGGGTKLEIK | – | – | binds to both hB1 and cB1 with a lower affinity | binds to both hB1 and cB1 with a lower affinity | – | – | – | – | – | – | – | – | – | – | –
B1.129.huH1-huL1(KV1): humanized B1.129; VH SEQ ID NO:63, VL SEQ ID NO:65 (antibody, V domains shown, humanized sequence) VH: EVQLVQSGAEVKKPGASVKVSCKASGYTFSTYVIHWVRQAPGQGLEWIGYIYPYNDYTKYNEKFKDRATLTSDKSTSTAYMELRSLRSDDTAVYYCSRAYYGNLVGYGVDYWGQGTTVTVSS VL: DIQLTQSPSSLSASVGDRVTITCRASSSVSFIYWYQQKPGKSPKPWIFATSNLASGVPSRFSGSGSGTDYTLTISSLQPEDFATYYCHQWGSNLPTFGGGTKLEIK | – | – | did not show significant binding | did not show significant binding | – | – | – | – | – | – | – | – | – | – | –
B1.261: anti-MDR1 antibody, Mouse; VH SEQ ID NO:118, VL SEQ ID NO:122 (antibody, listed as Mus musculus, V domains shown) VH: QVQLKESGPGLVAPSQSLSITCTVSGFSLTSYGVHWVRQPPGKGLEWLVVIWSDGSTTYNSALKSRLSISKDNSKSQVFLKMNSLQIDDTAMYYCARHGRWLLQRGGAMDYWGQGTSVTVSS VL: DVVMTQAPKFMSTSVGDRVSVTCRASQNVGSYIAWYQQKLGQSPKALIYSASYRCSGVPDRFTGSGAGTDFTLTIRNVQSEDLAEYFCQQYNSYPLTFGGGTKLEIK | decreased tumor volume | decreased tumor volume | bind to hB1 and cB1 | bind to hB1 and cB1 | – | – | – | decreased tumor volume | decreased tumor volume | – | – | – | – | – | sensitized
